1 protein from article PMC11519604, “TOX2 nuclear-cytosol translocation is linked to leukemogenesis of acute T-cell leukemia by repressing TIM3 transcription” (Cell Death and Differentiation, 2024) can be followed below.

The series concerns the molecule itself. As to the kind of experiment: not stated; HEK293T cells with forced expression or knockdown of TOX and TOX2; bands told by apparent size (Supplementary Fig. 3B).

B1: TOX-Flag (full-length TOX) (natural protein, UniProt O94900 1-526, looked up)
chain: MDVRFYPPPAQPAAAPDAPCLGPSPCLDPYYCNKFDGENMYMSMTEPSQDYVPASQSYPGPSLESEDFNIPPITPPSLPDHSLVHLNEVESGYHSLCHPMNHNGLLPFHPQNMDLPEITVSNMLGQDGTLLSNSISVMPDIRNPEGTQYSSHPQMAAMRPRGQPADIRQQPGMMPHGQLTTINQSQLSAQLGLNMGGSNVPHNSPSPPGSKSATPSPSSSVHEDEGDDTSKINGGEKRPASDMGKKPKTPKKKKKKDPNEPQKPVSAYALFFRDTQAAIKGQNPNATFGEVSKIVASMWDGLGEEQKQVYKKKTEAAKKEYLKQLAAYRASLVSKSYSEPVDVKTSQPPQLINSKPSVFHGPSQAHSALYLSSHYHQQPGMNPHLTAMHPSLPRNIAPKPNNQMPVTVSIANMAVSPPPPLQISPPLHQHLNMQQHQPLTMQQPLGNQLPMQVQSALHSPTMQQGFTLQPDYQTIINPTSTAAQVVTQAMEYVRSGCRNPPPQPVDWNNDYCSSGGMQRDKALYLT
notes: TOX, full length (526 residues by the printed limits of TOX(C) 257-526), in pCDH vector; Both are written as this one molecule; source: HEK293T, transfected, in lysate; not shown: Flag, C-terminal, kept
For B1, the “stoichiometry N” value is 2.

The stoichiometry N is the number of molecules, sites or subunits per partner or assembly.
